Assay results taken from article PMC4174979.

Biological target: WRN_(235–526) (human)
Experiment: SEC

Chain of WRN_(235–526) (domain or fragment) (Q14191 2-1432): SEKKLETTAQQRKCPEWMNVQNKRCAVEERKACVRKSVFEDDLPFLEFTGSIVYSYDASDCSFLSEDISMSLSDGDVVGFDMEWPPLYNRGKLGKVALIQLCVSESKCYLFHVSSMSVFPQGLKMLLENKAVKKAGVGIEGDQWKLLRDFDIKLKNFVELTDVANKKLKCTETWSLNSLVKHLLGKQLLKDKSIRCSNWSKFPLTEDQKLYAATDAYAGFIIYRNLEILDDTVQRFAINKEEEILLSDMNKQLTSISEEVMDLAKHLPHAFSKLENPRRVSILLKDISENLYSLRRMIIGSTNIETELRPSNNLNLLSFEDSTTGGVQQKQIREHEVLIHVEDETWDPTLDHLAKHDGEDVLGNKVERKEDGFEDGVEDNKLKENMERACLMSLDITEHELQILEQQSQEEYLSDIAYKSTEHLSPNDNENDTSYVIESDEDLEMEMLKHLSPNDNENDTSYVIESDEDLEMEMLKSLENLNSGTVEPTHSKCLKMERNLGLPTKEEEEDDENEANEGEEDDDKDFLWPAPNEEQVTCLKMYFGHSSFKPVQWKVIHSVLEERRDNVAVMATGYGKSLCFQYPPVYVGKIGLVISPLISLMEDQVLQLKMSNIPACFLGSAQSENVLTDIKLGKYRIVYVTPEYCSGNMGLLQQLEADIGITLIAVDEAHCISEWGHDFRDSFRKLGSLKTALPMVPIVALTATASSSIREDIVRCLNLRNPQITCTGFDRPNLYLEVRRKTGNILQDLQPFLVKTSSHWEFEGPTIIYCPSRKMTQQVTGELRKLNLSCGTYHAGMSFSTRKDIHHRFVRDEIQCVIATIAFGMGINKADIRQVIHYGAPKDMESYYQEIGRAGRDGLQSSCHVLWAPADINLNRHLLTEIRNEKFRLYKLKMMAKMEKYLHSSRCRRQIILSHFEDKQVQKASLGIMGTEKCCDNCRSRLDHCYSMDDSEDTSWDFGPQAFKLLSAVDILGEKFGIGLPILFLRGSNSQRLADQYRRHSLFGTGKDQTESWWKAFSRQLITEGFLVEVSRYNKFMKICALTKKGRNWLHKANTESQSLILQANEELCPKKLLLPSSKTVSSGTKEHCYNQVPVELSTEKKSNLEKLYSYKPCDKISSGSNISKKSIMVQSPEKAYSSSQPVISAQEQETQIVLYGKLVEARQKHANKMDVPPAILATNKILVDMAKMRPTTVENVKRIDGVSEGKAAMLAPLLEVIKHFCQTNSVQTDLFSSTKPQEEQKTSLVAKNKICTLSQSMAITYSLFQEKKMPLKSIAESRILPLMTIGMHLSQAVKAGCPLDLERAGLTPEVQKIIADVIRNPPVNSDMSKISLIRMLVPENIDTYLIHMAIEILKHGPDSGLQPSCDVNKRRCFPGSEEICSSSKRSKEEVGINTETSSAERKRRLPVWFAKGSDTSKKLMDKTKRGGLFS

stoichiometry N: 6
Substance: WRN_(235–526) (domain or fragment)
